Reference: patent US20250170216A1 (Protagonist Therapeutics, Inc., priority 2022, published 2025)
Like-named read-outs stand apart in the source and are kept apart here. Blank lines part the entries; values can stand above or below the compound they belong to.

What was measured:
[1] = biological target: T1, ferroportin fused to green fluorescent protein (Mus musculus, UniProt Q9JHI9); settings: read-out: EC50 (loss of fluorescence); 24 hours incubation; Hep25 preparations; cited from earlier work
T1 construct: expressed in transfected cells
T1 sequence (Q9JHI9 1-570): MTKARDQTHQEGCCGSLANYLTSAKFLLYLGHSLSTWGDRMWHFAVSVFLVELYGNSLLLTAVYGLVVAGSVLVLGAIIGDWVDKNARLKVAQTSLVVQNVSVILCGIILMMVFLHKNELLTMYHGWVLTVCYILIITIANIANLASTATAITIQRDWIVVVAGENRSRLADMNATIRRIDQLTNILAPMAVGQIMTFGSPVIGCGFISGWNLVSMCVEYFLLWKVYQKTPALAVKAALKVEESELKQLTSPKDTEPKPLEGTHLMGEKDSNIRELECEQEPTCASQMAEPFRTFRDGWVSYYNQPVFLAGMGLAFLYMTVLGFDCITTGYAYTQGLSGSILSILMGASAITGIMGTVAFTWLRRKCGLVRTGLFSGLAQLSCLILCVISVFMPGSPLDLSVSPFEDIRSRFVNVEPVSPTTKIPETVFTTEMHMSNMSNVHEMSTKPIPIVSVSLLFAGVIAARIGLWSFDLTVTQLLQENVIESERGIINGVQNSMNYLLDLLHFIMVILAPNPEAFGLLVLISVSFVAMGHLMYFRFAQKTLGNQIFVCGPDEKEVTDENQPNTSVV

ferroportin [2] = biological target: T2, ferroportin (Homo sapiens, UniProt Q9NP59); test: FPN activity assay: internalization of ferroportin-GFP in stably transfected HEK293 cells; type: cell-based; set-up: expressed in transfected cells
T2 sequence (Q9NP59 1-571): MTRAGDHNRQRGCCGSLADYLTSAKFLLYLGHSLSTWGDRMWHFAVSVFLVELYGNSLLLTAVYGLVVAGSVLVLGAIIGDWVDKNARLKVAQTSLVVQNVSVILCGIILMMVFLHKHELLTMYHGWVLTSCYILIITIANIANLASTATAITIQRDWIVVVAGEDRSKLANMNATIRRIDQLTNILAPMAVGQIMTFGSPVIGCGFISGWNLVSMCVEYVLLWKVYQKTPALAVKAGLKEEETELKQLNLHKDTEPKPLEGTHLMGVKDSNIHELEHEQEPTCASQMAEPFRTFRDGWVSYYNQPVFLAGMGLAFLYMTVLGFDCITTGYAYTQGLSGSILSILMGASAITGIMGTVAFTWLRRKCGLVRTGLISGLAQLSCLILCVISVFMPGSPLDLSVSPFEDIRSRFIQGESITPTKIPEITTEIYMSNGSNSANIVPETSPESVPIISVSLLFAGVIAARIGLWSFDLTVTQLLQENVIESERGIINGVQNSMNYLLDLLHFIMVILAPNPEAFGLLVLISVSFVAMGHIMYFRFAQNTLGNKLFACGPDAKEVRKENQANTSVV
Method: Peptide analogues were tested in vitro for induction of internalization of the human ferroportin protein. Following internalization, the ferroporin protein is degraded. The assay used (FPN activity assay) measures a decrease in fluorescence of the receptor. The cDNA encoding the human ferroportin (SLC40A1) was cloned from a cDNA clone from Origene (NM_014585). The DNA encoding the ferroportin was amplified by PCR using primers also encoding terminal restriction sites for subcloning, but without the termination codon. The ferroportin receptor was subcloned into a mammalian GFP expression vector containing a neomycin (G418) resistance marker in such that the reading frame of the ferroportin was fused in frame with the GFP protein. The fidelity of the DNA encoding the protein was confirmed by DNA sequencing. HEK293 cells were used for transfection of the ferroportin-GFP receptor expression plasmid. The cells were grown according to standard protocol in growth medium and transfected with the plasmids using Lipofectamine (manufacturer's protocol, Invitrogen). […] The EC50 of these reference compounds for ferroportin internalization/degradation was determined according to the FPN activity assay described above. […]

ferroportin [3] = biological target: T2, ferroportin; test: T47D cell-based ferroportin internalization assay in presence of 0.5% mouse serum albumin (MSA); set-up: a human breast carcinoma adherent cell line which endogenously expresses ferroportin; host or cells: T47D; settings: Table 1C
Method: The potency of the peptides in causing ferroportin internalization was evaluated in a T47D cell-based assay. […] In this internalization assay, the potency of the test peptides was evaluated in the presence of serum albumin, which is the main protein component in the blood. T47D cells were maintained in RPMI media (containing required amount of fetal bovine serum) and regularly sub-cultured. In preparation for the assay, the cells were seeded in 96-well plates at a density of 80-100 k cells per well in 100 ul volume and allowed to rest overnight. On the next day, test peptides were first prepared in dilution series (10-point series, starting concentration of ˜5 μM, typically 3-4×fold dilution steps), all with 0.5% mouse serum albumin (MSA purified from mouse serum; Sigma, A3139). The test peptide dilution series were allowed to incubate at room temperature for 30 min. Then the media was aspirated from the 96-well cell plate and test peptide dilution series were added. […] The Median Fluorescence Intensity (MFI) of the AF647-positive population was measured (after removing dead cells and non-singlets from the analysis). […] The IC50 potencies were calculated by using 4-parameter non-linear fitting function in Graphpad Prism, and the results are provided in Table 1C.

[4] = biological target: human ferroportin (SLC40A1) fused in frame with GFP, stably expressed in HEK293 cells (human) (UniProt Q9NP59); test: cell-based or functional assay
[5] = biological target: ferroportin endogenously expressed on T47D cells (HTB 133, ATCC) (human) (UniProt Q9NP59); test: cell-based or functional assay

Compound: CC[C@H](C)[C@@H]1NC(=O)[C@@H](NC(=O)[C@@H](NC(=O)[C@@H]2CCCN2C(=O)[C@H](Cc2ccccc2)NC(=O)[C@H](Cc2c[nH]cn2)NC(=O)[C@@H](NC(=O)[C@@H](N)CC(=O)O)[C@@H](C)O)[C@@H](C)CC)CSSC[C@@H](C(=O)N[C@@H](CCCCN)C(=O)N[C@H](C(=O)O)[C@@H](C)O)NC(=O)[C@@H]2CSSC[C@@H]3NC(=O)[C@@H]4CSSC[C@H](NC(=O)[C@H](Cc5ccccc5)NC1=O)C(=O)N[C@@H](CSSC[C@H](NC(=O)[C@H](CCCCN)NC(=O)[C@H](CO)NC(=O)[C@H](CCCNC(=N)N)NC(=O)[C@H](Cc1c[nH]cn1)NC3=O)C(=O)NCC(=O)N[C@@H](CCSC)C(=O)N2)C(=O)NCC(=O)N4 [Hepcidin, Hy-DTHFPIC(1)IFC(2)C(3)GC(2)C(4)HRSKC(3)GMC(4)C(1)KT-OH]
EC50 [1]: 5 to 15 nM

DC50 (ferroportin [2]; Table 6 reference compounds, read-out: Potency EC50): > 10000 nM
Compound: CC[C@@H](C)[C@@H](NC(=O)[C@H](N)Cc1ccccc1)C(=O)N[C@H](CS)C(=O)N[C@@H](C(=O)N1CCC[C@@H]1C(=O)N[C@H](Cc1ccccc1)C(=O)N[C@H](Cc1c[nH]cn1)C(=O)N[C@@H](C(=O)N[C@H](CC(=O)O)C(N)=O)[C@H](C)O)[C@H](C)CC [RI-Mini Hepcidin, Hy-DPhe-DIle-DCys-DIle-DPro-DPhe-DHis-DThr-DAsp-NH2]

DC50 (ferroportin [2]; Table 1C, FPN internalization assay, read-out: IC50: FPN): > 500 nM
IC50 (ferroportin [3]): 11 to 100 nM
Compound: CC[C@H](C)[C@@H]1NC(=O)[C@@H](NC(=O)[C@@H]2CCCN2C(=O)[C@@H](NC(=O)[C@H](Cc2cnc[nH]2)NC(=O)[C@@H](NC(=O)[C@H](CCC(=O)O)NC(=O)CC(C)C)[C@@H](C)O)C(c2ccccc2)c2ccccc2)CSSC(C)(C)[C@@H](C(N)=O)NC(=O)[C@@H](CCCCN)NC(=O)C[C@H](Cc2ccccc2)NC(=O)[C@H](CCCCNC(=O)CCOCCOCCOCCOCCOCCOCCOCCOCCOCCOCCOCCOCCNC(=O)CCCCCCCCCCC(=O)O)NC1=O [compound 4]

Potency EC50 (nM), FPN activity assay [4]: 34 nM
Compound: Hepcidin (peptide)

IC50: T47D MSA (nM), T47D internalization assay; *=>500 nM [5]: > 500 nM
IC50: FPN (nM), FPN internalization assay; *=IC50>500 nM [4]: > 500 nM
Compound: Isovaleric_Acid-E-C-H-DIP-P-C-I-dK-(NMe_Lys_AlbuTag)-dK-C-NH2-Trimethylbenzene (peptide)

IC50: T47D MSA (nM), T47D internalization assay; *=>500 nM [5]: > 500 nM
Compound: Isovaleric_Acid-E-C-H-DIP-P-C-I-dK-DIP-(NMe_Lys_AlbuTag)-dK-C-am-Trimethylbenzene (peptide)

IC50: FPN (nM), FPN internalization assay; *=IC50>500 nM [4]: > 500 nM
Compound: Isovaleric_Acid-E-T-H-DIP-P-C-I-[Lys_1PEG2_1PEG2_Ahx_C4_Diacid]-bhF-[dLys_PEG11_OMe]-C-NH2 (peptide)

IC50: T47D MSA (nM), T47D internalization assay; *=>500 nM [5]: > 500 nM
Compound: Isovaleric_Acid-E-T-H-DIP-P-C-I-[Lys_PEG12_C6_Diacid]-bhF-[dLys_PEG11_OMe]-Pen-NH2 (peptide)

IC50: FPN (nM), FPN internalization assay; *=IC50>500 nM [4]: > 500 nM
Compound: Isovaleric_Acid-E-T-H-DIP-P-C-I-[Lys_PEG12_C12_Diacid]-bhF-dK-Pen-NH2 (peptide)

IC50: T47D MSA (nM), T47D internalization assay; *=>500 nM [5]: > 500 nM
Compound: Isovaleric_Acid-E-T-H-DIP-P-C-I-dK-bhF-(Lys_Dap_C8_Diacid)-dK-C-NH2 (peptide)

IC50: T47D MSA (nM), T47D internalization assay; *=>500 nM [5]: > 500 nM
Compound: Isovaleric_Acid-E-hSer-H-DIP-P-C-I-[Lys_1PEG2_1PEG2_Ahx_C18_Diacid]-bhF-[dLys_PEG11_OMe]-C-NH2 (peptide)

Potency EC50 (nM), FPN activity assay [4]: 712 nM
Compound: Mini-Hepcidin 1-9 (peptide)

Potency EC50 (nM), FPN activity assay [4]: > 10000 nM
Compound: RI-Mini Hepcidin (peptide)
